From publication PMC1904291 come the findings set out here.

Common to all, as to experiment: EMSA
Background: Mobility shift assays separate free from complexed probe on a gel.

One data set has as its target T1, I-CreI GG (UniProt P05725 1-163, K142G;T143G).
T1 sequence: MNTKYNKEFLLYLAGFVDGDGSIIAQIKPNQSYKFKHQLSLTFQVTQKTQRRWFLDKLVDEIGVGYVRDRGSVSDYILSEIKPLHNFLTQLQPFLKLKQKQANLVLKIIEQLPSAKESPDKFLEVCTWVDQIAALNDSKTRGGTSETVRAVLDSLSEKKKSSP

In a further data set the target is T2, I-CreI AM (UniProt P05725 1-163, S138A;K139M).
T2 sequence: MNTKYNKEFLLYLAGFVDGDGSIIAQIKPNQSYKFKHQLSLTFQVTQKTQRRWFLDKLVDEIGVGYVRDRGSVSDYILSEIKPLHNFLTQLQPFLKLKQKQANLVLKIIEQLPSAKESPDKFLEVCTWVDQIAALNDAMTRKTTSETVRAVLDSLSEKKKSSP

For a further data set, the target named is T3, I-CreI K139M (UniProt P05725 1-163, K139M).
T3 sequence: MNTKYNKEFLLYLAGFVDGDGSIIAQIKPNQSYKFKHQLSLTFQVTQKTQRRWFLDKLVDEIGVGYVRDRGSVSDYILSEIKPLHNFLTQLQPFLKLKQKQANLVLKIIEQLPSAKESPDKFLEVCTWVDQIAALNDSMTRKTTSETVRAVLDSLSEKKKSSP

Another data set deals with T4, I-CreI S138A (UniProt P05725 1-163, S138A).
T4 sequence: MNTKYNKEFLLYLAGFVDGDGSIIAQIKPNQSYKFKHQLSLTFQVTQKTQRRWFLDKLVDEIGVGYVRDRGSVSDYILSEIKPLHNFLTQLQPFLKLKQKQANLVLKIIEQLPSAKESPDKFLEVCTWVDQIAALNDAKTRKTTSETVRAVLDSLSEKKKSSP

For the next data set, the target named is T5, I-CreI (UniProt P05725 1-163).
T5 sequence: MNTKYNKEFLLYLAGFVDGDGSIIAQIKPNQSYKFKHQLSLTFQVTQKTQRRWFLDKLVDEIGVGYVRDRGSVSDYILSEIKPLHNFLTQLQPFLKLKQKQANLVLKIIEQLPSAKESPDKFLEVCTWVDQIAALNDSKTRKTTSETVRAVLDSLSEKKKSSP

The next data set has as its target T6, I-CreI Δ1 (UniProt P05725 1-137).
T6 sequence: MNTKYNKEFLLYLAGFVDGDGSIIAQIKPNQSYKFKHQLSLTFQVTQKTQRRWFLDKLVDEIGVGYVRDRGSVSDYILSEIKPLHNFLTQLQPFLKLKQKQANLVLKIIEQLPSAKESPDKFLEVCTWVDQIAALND

B1: 6-FAM I-CreI target duplex (dsDNA)
DNA 1: GCAAAACGTCGTGAGACAGTTTGC
DNA 2: GCAAACTGTCTCACGACGTTTTGC
The Kd is the concentration at which binding is half-saturated. A low value points to a tighter complex. For B1, the dissociation constant (Kd) came out at 50 nM in the data set with I-CreI GG; 1240 nM in the data set with I-CreI AM; 110 nM with I-CreI K139M; 250 nM in the data set with I-CreI S138A; 0.2 nM with I-CreI. Moreover, the binding result with I-CreI Δ1 is on record as “no binding”.
